Sequences and labels used below:
B1: Example 13096 (peptide)
peptide: {CH2CO}-Y[NMeA]NP[Dap]L[Hyp]WGW[NMeNle][NMeNle]LCG-{NH(propargyl)}
modifications: thioether N-14
SMILES: C#CCNC(=O)CNC(=O)[C@@H]1CSCC(=O)N[C@@H](Cc2ccc(O)cc2)C(=O)N(C)[C@@H](C)C(=O)N[C@@H](CC(N)=O)C(=O)N2CCC[C@H]2C(=O)N[C@@H](CN)C(=O)N[C@@H](CC(C)C)C(=O)N2C[C@H](O)C[C@H]2C(=O)N[C@@H](Cc2c[nH]c3ccccc23)C(=O)NCC(=O)N[C@@H](Cc2c[nH]c3ccccc23)C(=O)N(C)[C@@H](CCCC)C(=O)N(C)[C@@H](CCCC)C(=O)N[C@@H](CC(C)C)C(=O)N1
notes: Macrocyclic peptide

The record followed here is US20160272680A1 (Bristol-Myers Squibb, published 2016).

Bridge positions count the residues as written; N and C are the ends. Square brackets hold non-standard residues; d marks the D form. Ends that are not written are not given here. * marks the point of attachment. Hyp = O=C(O)[C@@H]1C[C@@H](O)CN1; NMeNle = CCCC[C@H](NC)C(=O)O; NMeA = CN[C@@H](C)C(=O)O; Dap = NC[C@H](N)C(=O)O; NH(propargyl) = C#CCN*

For this experiment, the target named is T1, hPDL1(19-239)-TVMV-His (human, UniProt Q9NZQ7 19-239).
T1 construct: Expressed in HEK293T cells; The text says amino acids 18-239, but the construct is named hPD-L1(19-239); The whole entry, including the TVMV site and His tag, is the protein used in the assay; also called PD-L1-TVMV-His; PD-L1-His
T1 sequence (Q9NZQ7 other isoform, or with tags, fused parts or gaps limits assumed): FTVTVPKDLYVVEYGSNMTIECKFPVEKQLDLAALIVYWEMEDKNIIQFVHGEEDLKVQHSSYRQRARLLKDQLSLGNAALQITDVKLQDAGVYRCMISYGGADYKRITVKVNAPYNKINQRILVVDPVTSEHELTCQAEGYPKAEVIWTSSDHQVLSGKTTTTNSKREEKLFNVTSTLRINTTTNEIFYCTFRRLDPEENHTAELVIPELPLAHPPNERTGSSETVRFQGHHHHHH
Briefly: HTRF competition of PD-1-Ig binding to PD-L1-His; code A=0.01-0.06 µM. On the procedure: Homogenous Time-Resolved Fluorescence (HTRF) Assays of Binding of Soluble PD-1 to Soluble PD-L1. Soluble PD-1 and soluble PD-L1 refers to proteins with carboxyl-end truncations that remove the transmembrane-spanning regions and are fused to heterologous sequences, specifically the Fc portion of the human immunoglobuling G sequence (Ig) or the hexahistidine epitope tag (His). All binding studies were performed in an HTRF assay buffer consisting of dPBS supplemented with 0.1% (w/v) bovine serum albumin and 0.05% (v/v) Tween-20. For the PD-1-Ig/PD-L1-His binding assay, inhibitors were pre-incubated with PD-L1-His (10 nM final) for 15 m in 4 μl of assay buffer, followed by addition of PD-1-Ig (20 nM final) in 1 μl of assay buffer and further incubation for 15 m. PD-L1 fusion proteins from either human, cynomologous macaques, mouse, or other species were used. HTRF detection was achieved using europium crypate-labeled anti-Ig monoclonal antibody (1 nM final) and allophycocyanin (APC) labeled anti-His monoclonal antibody (20 nM final). Antibodies were diluted in HTRF detection buffer and 5 μl was dispensed on top of binding reaction. The reaction was allowed to equilibrate for 30 minutes and signal (665 nm/620 nm ratio) was obtained using an EnVision fluorometer. Additional binding assays were established between PD-1-Ig/PD-L2-His (20 and 5 nM, respectively), CD80-His/PD-L1-Ig (100 and 10 nM, respectively) and CD80-His/CTLA4-Ig (10 and 5 nM, respectively). Binding/competition studies between biotinylated Compound No. 71 and human PD-L1-His were performed as follows. Macrocyclic peptide inhibitors were pre-incubated with PD-L1-His (10 nM final) for 60 minutes in 4 μl of assay buffer followed by addition of biotinylated Compound No. 71 (0.5 nM final) in 1 μl of assay buffer. Binding was allowed to equilibrate for 30 minutes followed by addition of europium crypated labeled Streptavidin (2.5 pM final) and APC-labeled anti-His (20 nM final) in 5 μl of HTRF buffer. The reaction was allowed to equilibrate for 30 m and signal (665 nm/620 nm ratio) was obtained using an EnVision fluorometer.
A general note: In TR-FRET formats the signal depends on donor and acceptor labels being close together.
For orientation: IC50 means the midpoint of a concentration-inhibition curve. A low value points to inhibition by little substance. The molecule {CH2CO}-Y[NMeA]NP[Dap]L[Hyp]WGW[NMeNle][NMeNle]LCG-{2‑(phenylthio)ethanamine amide} (thioether N-14, Macrocyclic peptide) [Example 13101] had a 50% inhibitory concentration (IC50) of 10 to 60 nM.

{CH2CO}-Y[NMeA]NP[Dap]L[Hyp]WGW[NMeNle][NMeNle]LCG-{morpholine amide} (thioether N-14, Macrocyclic peptide) [Example 13087]: the IC50 fell in the range of 10 to 60 nM.

In turn, {CH2CO}-Y[NMeA]NP[Dap]L[Hyp]WGW[NMeNle][NMeNle]LCG-{4‑(4-chlorophenyl)piperidine} (thioether N-14, Macrocyclic peptide) [Example 13115] gave an IC50 of 10 to 60 nM.

With {CH2CO}-Y[NMeA]NP[Dap]L[Hyp]WGW[NMeNle][NMeNle]LCG-{4‑(dimethylamino)piperidine amide} (thioether N-14, Macrocyclic peptide) [Example 13103], the IC50 lay in the range of 10 to 60 nM.

Regarding {CH2CO}-Y[NMeA]NP[Dap]L[Hyp]WGW[NMeNle][NMeNle]LCG-{N‑(2-aminoethyl)‑N‑methyl carbamic acid tert‑butyl ester} (thioether N-14, Macrocyclic peptide) [Example 13113], the IC50 was in the range of 10 to 60 nM.

Molecule {CH2CO}-Y[NMeA]NP[Dap]L[Hyp]WGW[NMeNle][NMeNle]LCG-cyclobutylamide (thioether N-14, Macrocyclic peptide) [Example 13092] gave a concentration for half-maximal inhibition (IC50) of 10 to 60 nM.

Take {CH2CO}-Y[NMeA]NP[Dap]L[Hyp]WGW[NMeNle][NMeNle]LCG-{pyrrolidin‑1‑yl amide} (thioether N-14, Macrocyclic peptide) [Example 13085]: the IC50 lay within 10 to 60 nM.

{CH2CO}-Y[NMeA]NP[Dap]L[Hyp]WGW[NMeNle][NMeNle]LCG-{N‑methyl‑N‑propylamide} (thioether N-14, Macrocyclic peptide) [Example 13084]: the half-maximal inhibitory concentration (IC50) lay within 10 to 60 nM.

For {CH2CO}-Y[NMeA]NP[Dap]L[Hyp]WGW[NMeNle][NMeNle]LCG-{2‑aminoethylmethylsulfone} (thioether N-14, Macrocyclic peptide) [Example 13116], the IC50 is 10 to 60 nM.

{CH2CO}-Y[NMeA]NP[Dap]L[Hyp]WGW[NMeNle][NMeNle]LCG-{1‑(3-aminopropyl)imidazole amide} (thioether N-14, Macrocyclic peptide) [Example 13099] returned a half-inhibitory concentration (IC50) of 10 to 60 nM.

{CH2CO}-Y[NMeA]NP[Dap]L[Hyp]WGW[NMeNle][NMeNle]LCG-{tert‑butyl 3‑aminopropanoate} (thioether N-14, Macrocyclic peptide) [Example 13109]: the IC50 was in the range of 10 to 60 nM.

Molecule {CH2CO}-Y[NMeA]NP[Dap]L[Hyp]WGW[NMeNle][NMeNle]LCG-{2‑methoxyethylamide} (thioether N-14, Macrocyclic peptide) [Example 13082] returned an IC50 of 10 to 60 nM.

For the molecule {CH2CO}-Y[NMeA]NP[Dap]L[Hyp]WGW[NMeNle][NMeNle]LCG-{ethanolamine amide} (thioether N-14, Macrocyclic peptide) [Example 13095], the IC50 lay in the range of 10 to 60 nM.

The molecule {CH2CO}-Y[NMeA]NP[Dap]L[Hyp]WGW[NMeNle][NMeNle]LCG-allylamide (thioether N-14, Macrocyclic peptide) [Example 13097] yielded a half-inhibitory concentration (IC50) of 10 to 60 nM.

In the case of B1, the IC50 was 10 to 60 nM.

Turning to {CH2CO}-Y[NMeA]NP[Dap]L[Hyp]WGW[NMeNle][NMeNle]LCG-butylamide (thioether N-14, Macrocyclic peptide) [Example 13100], the IC50 is 10 to 60 nM.

As for {CH2CO}-Y[NMeA]NP[Dap]L[Hyp]WGW[NMeNle][NMeNle]LCG-{N‑Boc‑1,5‑diaminopentane} (thioether N-14, Macrocyclic peptide) [Example 13112], the IC50 lay within 10 to 60 nM.

Molecule {CH2CO}-Y[NMeA]NP[Dap]L[Hyp]WGW[NMeNle][NMeNle]LCG-{4‑piperidinemethanol} (thioether N-14, Macrocyclic peptide) [Example 13111] registered an IC50 of 10 to 60 nM.

Molecule {CH2CO}-Y[NMeA]NP[Dap]L[Hyp]WGW[NMeNle][NMeNle]LCG-{4‑aminocyclohexanol} (thioether N-14, Macrocyclic peptide) [Example 13106] showed an IC50 of 10 to 60 nM.

Take {CH2CO}-Y[NMeA]NP[Dap]L[Hyp]WGW[NMeNle][NMeNle]LCG-{methylpiperazine amide} (thioether N-14, Macrocyclic peptide) [Example 13089]: the IC50 fell in the range of 10 to 60 nM.

The molecule {CH2CO}-Y[NMeA]NP[Dap]L[Hyp]WGW[NMeNle][NMeNle]LCG (thioether N-14; not fully specified (C-terminus), Macrocyclic peptide) [Example 13104] displayed a concentration for half-maximal inhibition (IC50) of 10 to 60 nM.

As to {CH2CO}-Y[NMeA]NP[Dap]L[Hyp]WGW[NMeNle][NMeNle]LCG-{N,N‑dimethyl‑1,3‑propanediamine amide} (thioether N-14, Macrocyclic peptide) [Example 13098], the IC50 is 10 to 60 nM.

With {CH2CO}-Y[NMeA]NP[Dap]L[Hyp]WGW[NMeNle][NMeNle]LCG-{N‑(3-aminopropyl)diethanolamine} (thioether N-14, Macrocyclic peptide) [Example 13107], the IC50 was in the range of 10 to 60 nM.

As for {CH2CO}-Y[NMeA]NP[Dap]L[Hyp]WGW[NMeNle][NMeNle]LCG-{2‑phenoxyethylamine} (thioether N-14, Macrocyclic peptide) [Example 13108], the IC50 fell in the range of 10 to 60 nM.

Regarding {CH2CO}-Y[NMeA]NP[Dap]L[Hyp]WGW[NMeNle][NMeNle]LCG-{3‑(aminomethyl)pyridine amide} (thioether N-14, Macrocyclic peptide) [Example 13094], the IC50 lay within 10 to 60 nM.
